This passage reports Ho/Con_2b results from patent publication US20180155451A1 (published 2018).

B1: GpH7-B3 variant K326_08L/GpL16-k0 (antibody, human IgG1, kappa)
heavy: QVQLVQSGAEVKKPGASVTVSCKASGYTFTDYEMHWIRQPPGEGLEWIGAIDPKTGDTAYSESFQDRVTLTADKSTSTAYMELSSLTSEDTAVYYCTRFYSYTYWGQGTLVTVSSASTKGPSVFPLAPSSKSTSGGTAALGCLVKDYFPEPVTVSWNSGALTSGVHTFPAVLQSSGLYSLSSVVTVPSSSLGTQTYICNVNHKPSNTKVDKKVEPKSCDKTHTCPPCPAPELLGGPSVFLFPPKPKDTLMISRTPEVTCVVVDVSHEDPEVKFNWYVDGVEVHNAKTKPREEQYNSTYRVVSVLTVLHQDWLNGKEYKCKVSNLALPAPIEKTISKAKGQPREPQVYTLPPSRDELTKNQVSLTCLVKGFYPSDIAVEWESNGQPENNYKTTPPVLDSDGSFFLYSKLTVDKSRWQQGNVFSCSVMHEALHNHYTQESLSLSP
light: DIVMTQSPLSLPVTPGEPASISCQASESLVHSNRNTYLHWYLQKPGQSPQLLIYKVSNRFSGVPDRFSGSGSGTDFTLKISRVEAEDVGVYYCSQNTHVPPTFGQGTKVEIERTVAAPSVFIFPPSDEQLKSGTASVVCLLNNFYPREAKVQWKVDNALQSGNSQESVTEQDSKDSTYSLSSTLTLSKADYEKHKVYACEVTHQGLSSPVTKSFNRGEC
notes: also called Ho Ab K326_08L
B2: GpH7-B3 variant L328_09D/GpL16-k0 (antibody, human IgG1, kappa)
heavy: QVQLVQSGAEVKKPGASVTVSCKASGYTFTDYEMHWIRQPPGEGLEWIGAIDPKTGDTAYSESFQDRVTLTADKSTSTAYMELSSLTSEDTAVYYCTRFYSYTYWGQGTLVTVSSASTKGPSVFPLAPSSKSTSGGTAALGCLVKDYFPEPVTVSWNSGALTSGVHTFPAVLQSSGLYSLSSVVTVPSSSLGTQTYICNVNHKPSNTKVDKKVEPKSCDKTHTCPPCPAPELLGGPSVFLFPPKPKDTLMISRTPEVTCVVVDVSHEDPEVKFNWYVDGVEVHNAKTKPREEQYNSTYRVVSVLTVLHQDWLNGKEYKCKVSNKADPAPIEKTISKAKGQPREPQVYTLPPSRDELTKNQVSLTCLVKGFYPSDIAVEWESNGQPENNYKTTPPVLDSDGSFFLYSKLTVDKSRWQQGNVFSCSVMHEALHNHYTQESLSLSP
light: DIVMTQSPLSLPVTPGEPASISCQASESLVHSNRNTYLHWYLQKPGQSPQLLIYKVSNRFSGVPDRFSGSGSGTDFTLKISRVEAEDVGVYYCSQNTHVPPTFGQGTKVEIERTVAAPSVFIFPPSDEQLKSGTASVVCLLNNFYPREAKVQWKVDNALQSGNSQESVTEQDSKDSTYSLSSTLTLSKADYEKHKVYACEVTHQGLSSPVTKSFNRGEC
notes: also called Ho Ab L328_09D
B3: GpH7-B3 variant L234_09D/GpL16-k0 (antibody, human IgG1, kappa)
heavy: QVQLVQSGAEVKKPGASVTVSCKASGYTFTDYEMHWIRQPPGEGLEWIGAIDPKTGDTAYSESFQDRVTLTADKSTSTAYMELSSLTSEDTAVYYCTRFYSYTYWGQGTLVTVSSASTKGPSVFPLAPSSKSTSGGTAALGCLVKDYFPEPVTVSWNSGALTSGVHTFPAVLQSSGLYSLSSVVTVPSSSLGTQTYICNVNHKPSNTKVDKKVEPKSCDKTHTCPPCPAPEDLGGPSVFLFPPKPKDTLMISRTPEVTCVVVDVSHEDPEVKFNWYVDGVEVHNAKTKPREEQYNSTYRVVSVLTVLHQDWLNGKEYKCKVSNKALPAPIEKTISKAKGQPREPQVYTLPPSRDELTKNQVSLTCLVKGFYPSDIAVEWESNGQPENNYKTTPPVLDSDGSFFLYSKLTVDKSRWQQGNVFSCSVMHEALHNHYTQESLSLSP
light: DIVMTQSPLSLPVTPGEPASISCQASESLVHSNRNTYLHWYLQKPGQSPQLLIYKVSNRFSGVPDRFSGSGSGTDFTLKISRVEAEDVGVYYCSQNTHVPPTFGQGTKVEIERTVAAPSVFIFPPSDEQLKSGTASVVCLLNNFYPREAKVQWKVDNALQSGNSQESVTEQDSKDSTYSLSSTLTLSKADYEKHKVYACEVTHQGLSSPVTKSFNRGEC
notes: also called Ho Ab L234_09D
B4: GpH7-B3 variant L234_20W/GpL16-k0 (antibody, human IgG1, kappa)
heavy: not shown
light: DIVMTQSPLSLPVTPGEPASISCQASESLVHSNRNTYLHWYLQKPGQSPQLLIYKVSNRFSGVPDRFSGSGSGTDFTLKISRVEAEDVGVYYCSQNTHVPPTFGQGTKVEIERTVAAPSVFIFPPSDEQLKSGTASVVCLLNNFYPREAKVQWKVDNALQSGNSQESVTEQDSKDSTYSLSSTLTLSKADYEKHKVYACEVTHQGLSSPVTKSFNRGEC
notes: also called Ho Ab L234_20W
B5: GpH7-B3 variant K326_20W/GpL16-k0 (antibody, human IgG1, kappa)
heavy: not shown
light: DIVMTQSPLSLPVTPGEPASISCQASESLVHSNRNTYLHWYLQKPGQSPQLLIYKVSNRFSGVPDRFSGSGSGTDFTLKISRVEAEDVGVYYCSQNTHVPPTFGQGTKVEIERTVAAPSVFIFPPSDEQLKSGTASVVCLLNNFYPREAKVQWKVDNALQSGNSQESVTEQDSKDSTYSLSSTLTLSKADYEKHKVYACEVTHQGLSSPVTKSFNRGEC
notes: also called Ho Ab K326_20W
B6: GpH7-B3 variant L328_02A/GpL16-k0 (antibody, human IgG1, kappa)
heavy: not shown
light: DIVMTQSPLSLPVTPGEPASISCQASESLVHSNRNTYLHWYLQKPGQSPQLLIYKVSNRFSGVPDRFSGSGSGTDFTLKISRVEAEDVGVYYCSQNTHVPPTFGQGTKVEIERTVAAPSVFIFPPSDEQLKSGTASVVCLLNNFYPREAKVQWKVDNALQSGNSQESVTEQDSKDSTYSLSSTLTLSKADYEKHKVYACEVTHQGLSSPVTKSFNRGEC
notes: also called Ho Ab L328_02A
B7: GpH7-B3 variant N325_01G/GpL16-k0 (antibody, human IgG1, kappa)
heavy: not shown
light: DIVMTQSPLSLPVTPGEPASISCQASESLVHSNRNTYLHWYLQKPGQSPQLLIYKVSNRFSGVPDRFSGSGSGTDFTLKISRVEAEDVGVYYCSQNTHVPPTFGQGTKVEIERTVAAPSVFIFPPSDEQLKSGTASVVCLLNNFYPREAKVQWKVDNALQSGNSQESVTEQDSKDSTYSLSSTLTLSKADYEKHKVYACEVTHQGLSSPVTKSFNRGEC
notes: also called Ho Ab N325_01G
B8: GpH7-B3 variant L328_13S/GpL16-k0 (antibody, human IgG1, kappa)
heavy: not shown
light: DIVMTQSPLSLPVTPGEPASISCQASESLVHSNRNTYLHWYLQKPGQSPQLLIYKVSNRFSGVPDRFSGSGSGTDFTLKISRVEAEDVGVYYCSQNTHVPPTFGQGTKVEIERTVAAPSVFIFPPSDEQLKSGTASVVCLLNNFYPREAKVQWKVDNALQSGNSQESVTEQDSKDSTYSLSSTLTLSKADYEKHKVYACEVTHQGLSSPVTKSFNRGEC
notes: also called Ho Ab L328_13S
B9: GpH7-B3 variant L234_10E/GpL16-k0 (antibody, human IgG1, kappa)
heavy: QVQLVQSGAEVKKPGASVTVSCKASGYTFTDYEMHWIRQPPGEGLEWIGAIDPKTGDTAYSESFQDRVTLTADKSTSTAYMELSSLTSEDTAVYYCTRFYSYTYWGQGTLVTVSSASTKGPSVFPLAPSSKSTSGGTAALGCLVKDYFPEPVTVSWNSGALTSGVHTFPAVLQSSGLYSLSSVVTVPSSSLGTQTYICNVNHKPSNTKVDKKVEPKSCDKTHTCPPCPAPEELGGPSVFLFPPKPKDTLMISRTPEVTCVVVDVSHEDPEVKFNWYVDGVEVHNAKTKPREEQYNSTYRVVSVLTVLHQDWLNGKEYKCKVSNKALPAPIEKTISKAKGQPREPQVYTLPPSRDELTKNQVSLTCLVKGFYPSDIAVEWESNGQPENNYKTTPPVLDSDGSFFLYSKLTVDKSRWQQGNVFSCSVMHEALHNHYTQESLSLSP
light: DIVMTQSPLSLPVTPGEPASISCQASESLVHSNRNTYLHWYLQKPGQSPQLLIYKVSNRFSGVPDRFSGSGSGTDFTLKISRVEAEDVGVYYCSQNTHVPPTFGQGTKVEIERTVAAPSVFIFPPSDEQLKSGTASVVCLLNNFYPREAKVQWKVDNALQSGNSQESVTEQDSKDSTYSLSSTLTLSKADYEKHKVYACEVTHQGLSSPVTKSFNRGEC
notes: also called Ho Ab L234_10E
B10: GpH7-B3 variant L328_10E/GpL16-k0 (antibody, human IgG1, kappa)
heavy: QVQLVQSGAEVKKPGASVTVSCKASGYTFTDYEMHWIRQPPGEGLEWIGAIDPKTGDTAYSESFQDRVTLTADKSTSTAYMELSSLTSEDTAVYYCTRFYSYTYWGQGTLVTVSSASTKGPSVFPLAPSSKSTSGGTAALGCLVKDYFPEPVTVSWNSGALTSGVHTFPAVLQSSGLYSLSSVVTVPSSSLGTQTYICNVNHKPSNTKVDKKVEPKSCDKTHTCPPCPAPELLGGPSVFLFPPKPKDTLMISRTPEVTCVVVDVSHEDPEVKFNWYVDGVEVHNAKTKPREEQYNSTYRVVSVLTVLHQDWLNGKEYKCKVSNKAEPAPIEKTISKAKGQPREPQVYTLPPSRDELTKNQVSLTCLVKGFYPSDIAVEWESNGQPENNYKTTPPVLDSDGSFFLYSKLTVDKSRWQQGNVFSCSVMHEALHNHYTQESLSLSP
light: DIVMTQSPLSLPVTPGEPASISCQASESLVHSNRNTYLHWYLQKPGQSPQLLIYKVSNRFSGVPDRFSGSGSGTDFTLKISRVEAEDVGVYYCSQNTHVPPTFGQGTKVEIERTVAAPSVFIFPPSDEQLKSGTASVVCLLNNFYPREAKVQWKVDNALQSGNSQESVTEQDSKDSTYSLSSTLTLSKADYEKHKVYACEVTHQGLSSPVTKSFNRGEC
notes: also called Ho Ab L328_10E
B11: GpH7-B3 variant L235_20W/GpL16-k0 (antibody, human IgG1, kappa)
heavy: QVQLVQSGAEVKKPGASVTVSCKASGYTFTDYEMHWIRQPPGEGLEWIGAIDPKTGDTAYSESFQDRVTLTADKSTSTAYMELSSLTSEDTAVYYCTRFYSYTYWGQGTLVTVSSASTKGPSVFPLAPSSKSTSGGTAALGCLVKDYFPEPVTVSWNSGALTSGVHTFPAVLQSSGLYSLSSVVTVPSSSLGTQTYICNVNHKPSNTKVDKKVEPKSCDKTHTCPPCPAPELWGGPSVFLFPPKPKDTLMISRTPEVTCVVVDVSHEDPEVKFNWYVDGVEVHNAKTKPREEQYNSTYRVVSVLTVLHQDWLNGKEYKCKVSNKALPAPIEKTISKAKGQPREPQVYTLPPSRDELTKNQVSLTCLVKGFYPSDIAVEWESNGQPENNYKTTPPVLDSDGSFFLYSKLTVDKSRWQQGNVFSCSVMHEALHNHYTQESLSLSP
light: DIVMTQSPLSLPVTPGEPASISCQASESLVHSNRNTYLHWYLQKPGQSPQLLIYKVSNRFSGVPDRFSGSGSGTDFTLKISRVEAEDVGVYYCSQNTHVPPTFGQGTKVEIERTVAAPSVFIFPPSDEQLKSGTASVVCLLNNFYPREAKVQWKVDNALQSGNSQESVTEQDSKDSTYSLSSTLTLSKADYEKHKVYACEVTHQGLSSPVTKSFNRGEC
notes: also called Ho Ab L235_20W
B12: GpH7-B3 variant L235_04F/GpL16-k0 (antibody, human IgG1, kappa)
heavy: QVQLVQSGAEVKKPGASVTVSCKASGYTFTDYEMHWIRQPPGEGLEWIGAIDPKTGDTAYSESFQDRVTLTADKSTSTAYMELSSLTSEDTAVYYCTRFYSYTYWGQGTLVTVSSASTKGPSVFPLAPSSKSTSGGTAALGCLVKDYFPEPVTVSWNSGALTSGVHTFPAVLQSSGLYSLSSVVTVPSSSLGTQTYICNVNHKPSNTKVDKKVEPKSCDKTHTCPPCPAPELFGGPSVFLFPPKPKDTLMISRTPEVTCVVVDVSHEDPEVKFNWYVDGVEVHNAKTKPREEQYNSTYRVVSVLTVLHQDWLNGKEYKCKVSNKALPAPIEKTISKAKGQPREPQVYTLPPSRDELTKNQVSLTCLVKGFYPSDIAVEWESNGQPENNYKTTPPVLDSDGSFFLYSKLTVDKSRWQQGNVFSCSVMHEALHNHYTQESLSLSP
light: DIVMTQSPLSLPVTPGEPASISCQASESLVHSNRNTYLHWYLQKPGQSPQLLIYKVSNRFSGVPDRFSGSGSGTDFTLKISRVEAEDVGVYYCSQNTHVPPTFGQGTKVEIERTVAAPSVFIFPPSDEQLKSGTASVVCLLNNFYPREAKVQWKVDNALQSGNSQESVTEQDSKDSTYSLSSTLTLSKADYEKHKVYACEVTHQGLSSPVTKSFNRGEC
notes: also called Ho Ab L235_04F
B13: GpH7-B3 variant N325_04F/GpL16-k0 (antibody, human IgG1, kappa)
heavy: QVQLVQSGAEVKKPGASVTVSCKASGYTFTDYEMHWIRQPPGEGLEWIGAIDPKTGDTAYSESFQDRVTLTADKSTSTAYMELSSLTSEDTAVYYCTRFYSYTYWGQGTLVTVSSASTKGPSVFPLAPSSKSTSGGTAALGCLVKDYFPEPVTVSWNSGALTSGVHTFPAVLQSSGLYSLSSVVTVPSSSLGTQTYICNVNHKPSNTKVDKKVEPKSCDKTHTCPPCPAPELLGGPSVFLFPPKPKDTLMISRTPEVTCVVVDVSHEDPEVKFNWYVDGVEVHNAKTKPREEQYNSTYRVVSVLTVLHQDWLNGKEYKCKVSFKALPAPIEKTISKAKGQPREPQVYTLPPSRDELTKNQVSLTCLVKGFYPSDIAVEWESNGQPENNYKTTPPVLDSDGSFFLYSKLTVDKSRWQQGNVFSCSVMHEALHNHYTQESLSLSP
light: DIVMTQSPLSLPVTPGEPASISCQASESLVHSNRNTYLHWYLQKPGQSPQLLIYKVSNRFSGVPDRFSGSGSGTDFTLKISRVEAEDVGVYYCSQNTHVPPTFGQGTKVEIERTVAAPSVFIFPPSDEQLKSGTASVVCLLNNFYPREAKVQWKVDNALQSGNSQESVTEQDSKDSTYSLSSTLTLSKADYEKHKVYACEVTHQGLSSPVTKSFNRGEC
notes: also called Ho Ab N325_04F
B14: GpH7-B3 variant L235_15Y/GpL16-k0 (antibody, human IgG1, kappa)
heavy: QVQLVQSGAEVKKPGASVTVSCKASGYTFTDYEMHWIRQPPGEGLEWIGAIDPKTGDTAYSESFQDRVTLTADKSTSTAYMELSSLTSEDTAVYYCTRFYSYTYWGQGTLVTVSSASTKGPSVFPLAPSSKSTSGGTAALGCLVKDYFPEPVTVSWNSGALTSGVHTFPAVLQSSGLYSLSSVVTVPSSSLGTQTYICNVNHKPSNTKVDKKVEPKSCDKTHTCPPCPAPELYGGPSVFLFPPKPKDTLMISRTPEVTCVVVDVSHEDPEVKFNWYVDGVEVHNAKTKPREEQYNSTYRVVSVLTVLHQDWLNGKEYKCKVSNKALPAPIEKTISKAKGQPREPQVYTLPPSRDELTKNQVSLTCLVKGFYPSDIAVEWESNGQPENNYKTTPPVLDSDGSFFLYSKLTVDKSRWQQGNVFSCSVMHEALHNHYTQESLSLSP
light: DIVMTQSPLSLPVTPGEPASISCQASESLVHSNRNTYLHWYLQKPGQSPQLLIYKVSNRFSGVPDRFSGSGSGTDFTLKISRVEAEDVGVYYCSQNTHVPPTFGQGTKVEIERTVAAPSVFIFPPSDEQLKSGTASVVCLLNNFYPREAKVQWKVDNALQSGNSQESVTEQDSKDSTYSLSSTLTLSKADYEKHKVYACEVTHQGLSSPVTKSFNRGEC
notes: also called Ho Ab L235_15Y
B15: GpH7-B3 variant N325_03V/GpL16-k0 (antibody, human IgG1, kappa)
heavy: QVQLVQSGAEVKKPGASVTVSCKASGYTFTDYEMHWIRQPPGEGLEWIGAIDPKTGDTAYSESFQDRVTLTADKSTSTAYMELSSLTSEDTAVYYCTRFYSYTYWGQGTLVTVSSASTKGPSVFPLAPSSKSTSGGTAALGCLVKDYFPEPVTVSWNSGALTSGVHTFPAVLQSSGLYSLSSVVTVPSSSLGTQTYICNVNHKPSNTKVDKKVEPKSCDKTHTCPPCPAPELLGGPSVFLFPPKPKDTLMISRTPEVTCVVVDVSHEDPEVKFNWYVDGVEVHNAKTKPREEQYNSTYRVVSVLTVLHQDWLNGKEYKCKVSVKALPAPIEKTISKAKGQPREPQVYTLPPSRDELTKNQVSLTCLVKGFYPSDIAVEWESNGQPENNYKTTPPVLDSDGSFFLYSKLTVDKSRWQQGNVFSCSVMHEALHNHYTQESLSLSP
light: DIVMTQSPLSLPVTPGEPASISCQASESLVHSNRNTYLHWYLQKPGQSPQLLIYKVSNRFSGVPDRFSGSGSGTDFTLKISRVEAEDVGVYYCSQNTHVPPTFGQGTKVEIERTVAAPSVFIFPPSDEQLKSGTASVVCLLNNFYPREAKVQWKVDNALQSGNSQESVTEQDSKDSTYSLSSTLTLSKADYEKHKVYACEVTHQGLSSPVTKSFNRGEC
notes: also called Ho Ab N325_03V
B16: GpH7-B3 variant L235_09D/GpL16-k0 (antibody, human IgG1, kappa)
heavy: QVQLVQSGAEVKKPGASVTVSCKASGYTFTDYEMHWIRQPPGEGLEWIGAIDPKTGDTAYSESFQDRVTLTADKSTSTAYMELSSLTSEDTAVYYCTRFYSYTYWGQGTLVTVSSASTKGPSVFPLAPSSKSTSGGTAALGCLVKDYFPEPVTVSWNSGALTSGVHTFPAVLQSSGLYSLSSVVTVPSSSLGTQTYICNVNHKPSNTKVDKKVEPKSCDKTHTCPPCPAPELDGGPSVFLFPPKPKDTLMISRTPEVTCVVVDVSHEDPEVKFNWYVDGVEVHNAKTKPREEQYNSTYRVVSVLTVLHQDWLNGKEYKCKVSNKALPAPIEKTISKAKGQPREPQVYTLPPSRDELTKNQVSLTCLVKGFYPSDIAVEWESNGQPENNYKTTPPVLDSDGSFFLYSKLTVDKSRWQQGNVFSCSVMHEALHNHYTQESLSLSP
light: DIVMTQSPLSLPVTPGEPASISCQASESLVHSNRNTYLHWYLQKPGQSPQLLIYKVSNRFSGVPDRFSGSGSGTDFTLKISRVEAEDVGVYYCSQNTHVPPTFGQGTKVEIERTVAAPSVFIFPPSDEQLKSGTASVVCLLNNFYPREAKVQWKVDNALQSGNSQESVTEQDSKDSTYSLSSTLTLSKADYEKHKVYACEVTHQGLSSPVTKSFNRGEC
notes: also called Ho Ab L235_09D

This assay concerns the target T1, FcγRIIb (human, UniProt P31994 43-217).
T1 construct: extracellular domain; also called 2b; FcgRIIb
T1 sequence (looked up): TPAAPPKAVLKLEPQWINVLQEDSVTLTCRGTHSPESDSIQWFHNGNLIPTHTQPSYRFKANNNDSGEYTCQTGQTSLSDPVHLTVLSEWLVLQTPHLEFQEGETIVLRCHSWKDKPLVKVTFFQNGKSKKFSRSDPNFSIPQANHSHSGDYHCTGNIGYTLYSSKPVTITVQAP
Put plainly: SPR (Biacore), binding relative to GpH7-B3/GpL16-k0 = 100. Here is the method: Analysis of interaction between objective antibody and the FcγR was carried out using Biacore T100 (GE Healthcare). HBS-EP+ (GE Healthcare) was used as the running buffer, and the measurement temperature was set to 25° C. Chips produced by immobilizing the antigen peptide by the amine coupling method to a Series S Sencor Chip CM5 (GE Healthcare), or alternatively, chips produced by allowing preliminarily biotinylated antigen peptides to interact with and immobilize onto a Series S Sensor Chip SA (certified) (GE Healthcare) were used. Antibodies of interest were captured onto an antigen peptide-immobilized chip, and allowed to interact to each FcγR diluted with running buffer. To regenerate and repeatedly use the chip, the antibodies captured on the chip were washed off by reacting 10 mM glycine-HCl, pH 1.5.
The FcγR-binding activity of each antibody was assessed primarily using as an indicator the FcγR-binding activity and dissociation constant for FcγR.
Take B1: the Ho/Con_2b is 168 % of control.
B2: the Ho/Con_2b was 159 % of control.
In the case of B3 it was 68.5 % of control; in that of B4, 80.6 % of control; in that of B5, 132 % of control.
Take B6: the Ho/Con_2b was 117 % of control.
Then B7, with 20.2 % of control.
For the molecule B8, the Ho/Con_2b was 147 % of control.
For B9, the Ho/Con_2b was 54.9 % of control.
B10: the Ho/Con_2b was 146 % of control.
Consider B11, for which the Ho/Con_2b was 116 % of control.
Take B12: the Ho/Con_2b was 111 % of control.
Then B13, with 65.7 % of control; and B14, with 127 % of control; and B15, with 31.8 % of control.
Then B16, with 78.7 % of control.
